Drawing on US20210388087A1, this text covers fold change of affinity for 14 molecules.

B1: dBBDu183H A102Q / dBBDu072L (antibody, name in Kabat numbering, V domains shown)
VH: QVQLVESGGGLVQPGRSLRLSCAASGFTFSNAWMHWVRQAPGKGLEWVAQIKDKGNAYAAYYAPSVKGRFTISRDDSKNSIYLQMNSLKTEDTAVYYCHYVHYASASTVLPAFGVDQWGQGTTVTVSS
VL: DIVMTQSPLSLPVTPGEPASISCQASQELVHMNRNTYLHWYQQKPGQAPRLLIYKVSNRFPGVPDRFSGSGSGTDFTLKISRVEAEDVGVYYCAQGTSVPFTFGQGTKLEIK
B2: dBBDu183H V95T / dBBDu072L (antibody, name in Kabat numbering, V domains shown)
VH: QVQLVESGGGLVQPGRSLRLSCAASGFTFSNAWMHWVRQAPGKGLEWVAQIKDKGNAYAAYYAPSVKGRFTISRDDSKNSIYLQMNSLKTEDTAVYYCHYTHYASASTVLPAFGVDAWGQGTTVTVSS
VL: DIVMTQSPLSLPVTPGEPASISCQASQELVHMNRNTYLHWYQQKPGQAPRLLIYKVSNRFPGVPDRFSGSGSGTDFTLKISRVEAEDVGVYYCAQGTSVPFTFGQGTKLEIK
B3: dBBDu183H H96S / dBBDu072L (antibody, name in Kabat numbering, V domains shown)
VH: QVQLVESGGGLVQPGRSLRLSCAASGFTFSNAWMHWVRQAPGKGLEWVAQIKDKGNAYAAYYAPSVKGRFTISRDDSKNSIYLQMNSLKTEDTAVYYCHYVSYASASTVLPAFGVDAWGQGTTVTVSS
VL: DIVMTQSPLSLPVTPGEPASISCQASQELVHMNRNTYLHWYQQKPGQAPRLLIYKVSNRFPGVPDRFSGSGSGTDFTLKISRVEAEDVGVYYCAQGTSVPFTFGQGTKLEIK
B4: dBBDu183H V100iS / dBBDu072L (antibody, name in Kabat numbering, V domains shown)
VH: QVQLVESGGGLVQPGRSLRLSCAASGFTFSNAWMHWVRQAPGKGLEWVAQIKDKGNAYAAYYAPSVKGRFTISRDDSKNSIYLQMNSLKTEDTAVYYCHYVHYASASTVLPAFGSDAWGQGTTVTVSS
VL: DIVMTQSPLSLPVTPGEPASISCQASQELVHMNRNTYLHWYQQKPGQAPRLLIYKVSNRFPGVPDRFSGSGSGTDFTLKISRVEAEDVGVYYCAQGTSVPFTFGQGTKLEIK
B5: dBBDu183H V95S / dBBDu072L (antibody, name in Kabat numbering, V domains shown)
VH: QVQLVESGGGLVQPGRSLRLSCAASGFTFSNAWMHWVRQAPGKGLEWVAQIKDKGNAYAAYYAPSVKGRFTISRDDSKNSIYLQMNSLKTEDTAVYYCHYSHYASASTVLPAFGVDAWGQGTTVTVSS
VL: DIVMTQSPLSLPVTPGEPASISCQASQELVHMNRNTYLHWYQQKPGQAPRLLIYKVSNRFPGVPDRFSGSGSGTDFTLKISRVEAEDVGVYYCAQGTSVPFTFGQGTKLEIK
B6: dBBDu183H A100S / dBBDu072L (antibody, name in Kabat numbering, V domains shown)
VH: QVQLVESGGGLVQPGRSLRLSCAASGFTFSNAWMHWVRQAPGKGLEWVAQIKDKGNAYAAYYAPSVKGRFTISRDDSKNSIYLQMNSLKTEDTAVYYCHYVHYASSSTVLPAFGVDAWGQGTTVTVSS
VL: DIVMTQSPLSLPVTPGEPASISCQASQELVHMNRNTYLHWYQQKPGQAPRLLIYKVSNRFPGVPDRFSGSGSGTDFTLKISRVEAEDVGVYYCAQGTSVPFTFGQGTKLEIK
B7: dBBDu183H Y97S / dBBDu072L (antibody, name in Kabat numbering, V domains shown)
VH: QVQLVESGGGLVQPGRSLRLSCAASGFTFSNAWMHWVRQAPGKGLEWVAQIKDKGNAYAAYYAPSVKGRFTISRDDSKNSIYLQMNSLKTEDTAVYYCHYVHSASASTVLPAFGVDAWGQGTTVTVSS
VL: DIVMTQSPLSLPVTPGEPASISCQASQELVHMNRNTYLHWYQQKPGQAPRLLIYKVSNRFPGVPDRFSGSGSGTDFTLKISRVEAEDVGVYYCAQGTSVPFTFGQGTKLEIK
B8: dBBDu183H H93T / dBBDu072L (antibody, name in Kabat numbering, V domains shown)
VH: QVQLVESGGGLVQPGRSLRLSCAASGFTFSNAWMHWVRQAPGKGLEWVAQIKDKGNAYAAYYAPSVKGRFTISRDDSKNSIYLQMNSLKTEDTAVYYCTYVHYASASTVLPAFGVDAWGQGTTVTVSS
VL: DIVMTQSPLSLPVTPGEPASISCQASQELVHMNRNTYLHWYQQKPGQAPRLLIYKVSNRFPGVPDRFSGSGSGTDFTLKISRVEAEDVGVYYCAQGTSVPFTFGQGTKLEIK
B9: dBBDu183H Y97T / dBBDu072L (antibody, name in Kabat numbering, V domains shown)
VH: QVQLVESGGGLVQPGRSLRLSCAASGFTFSNAWMHWVRQAPGKGLEWVAQIKDKGNAYAAYYAPSVKGRFTISRDDSKNSIYLQMNSLKTEDTAVYYCHYVHTASASTVLPAFGVDAWGQGTTVTVSS
VL: DIVMTQSPLSLPVTPGEPASISCQASQELVHMNRNTYLHWYQQKPGQAPRLLIYKVSNRFPGVPDRFSGSGSGTDFTLKISRVEAEDVGVYYCAQGTSVPFTFGQGTKLEIK
B10: dBBDu183H A100T / dBBDu072L (antibody, name in Kabat numbering, V domains shown)
VH: QVQLVESGGGLVQPGRSLRLSCAASGFTFSNAWMHWVRQAPGKGLEWVAQIKDKGNAYAAYYAPSVKGRFTISRDDSKNSIYLQMNSLKTEDTAVYYCHYVHYASTSTVLPAFGVDAWGQGTTVTVSS
VL: DIVMTQSPLSLPVTPGEPASISCQASQELVHMNRNTYLHWYQQKPGQAPRLLIYKVSNRFPGVPDRFSGSGSGTDFTLKISRVEAEDVGVYYCAQGTSVPFTFGQGTKLEIK
B11: dBBDu183H A98T / dBBDu072L (antibody, name in Kabat numbering, V domains shown)
VH: QVQLVESGGGLVQPGRSLRLSCAASGFTFSNAWMHWVRQAPGKGLEWVAQIKDKGNAYAAYYAPSVKGRFTISRDDSKNSIYLQMNSLKTEDTAVYYCHYVHYTSASTVLPAFGVDAWGQGTTVTVSS
VL: DIVMTQSPLSLPVTPGEPASISCQASQELVHMNRNTYLHWYQQKPGQAPRLLIYKVSNRFPGVPDRFSGSGSGTDFTLKISRVEAEDVGVYYCAQGTSVPFTFGQGTKLEIK
B12: dBBDu183H G100hS / dBBDu072L (antibody, name in Kabat numbering, V domains shown)
VH: QVQLVESGGGLVQPGRSLRLSCAASGFTFSNAWMHWVRQAPGKGLEWVAQIKDKGNAYAAYYAPSVKGRFTISRDDSKNSIYLQMNSLKTEDTAVYYCHYVHYASASTVLPAFSVDAWGQGTTVTVSS
VL: DIVMTQSPLSLPVTPGEPASISCQASQELVHMNRNTYLHWYQQKPGQAPRLLIYKVSNRFPGVPDRFSGSGSGTDFTLKISRVEAEDVGVYYCAQGTSVPFTFGQGTKLEIK
B13: dBBDu183H S100aT / dBBDu072L (antibody, name in Kabat numbering, V domains shown)
VH: QVQLVESGGGLVQPGRSLRLSCAASGFTFSNAWMHWVRQAPGKGLEWVAQIKDKGNAYAAYYAPSVKGRFTISRDDSKNSIYLQMNSLKTEDTAVYYCHYVHYASATTVLPAFGVDAWGQGTTVTVSS
VL: DIVMTQSPLSLPVTPGEPASISCQASQELVHMNRNTYLHWYQQKPGQAPRLLIYKVSNRFPGVPDRFSGSGSGTDFTLKISRVEAEDVGVYYCAQGTSVPFTFGQGTKLEIK
B14: dBBDu183H H93S / dBBDu072L (antibody, name in Kabat numbering, V domains shown)
VH: QVQLVESGGGLVQPGRSLRLSCAASGFTFSNAWMHWVRQAPGKGLEWVAQIKDKGNAYAAYYAPSVKGRFTISRDDSKNSIYLQMNSLKTEDTAVYYCSYVHYASASTVLPAFGVDAWGQGTTVTVSS
VL: DIVMTQSPLSLPVTPGEPASISCQASQELVHMNRNTYLHWYQQKPGQAPRLLIYKVSNRFPGVPDRFSGSGSGTDFTLKISRVEAEDVGVYYCAQGTSVPFTFGQGTKLEIK

For this test, the target named is Human CD137 ECD (human). As to the kind of experiment: SPR, vs parent H183/L072.
Chain of Human CD137 ECD (human) (chain, as listed by the source limits assumed): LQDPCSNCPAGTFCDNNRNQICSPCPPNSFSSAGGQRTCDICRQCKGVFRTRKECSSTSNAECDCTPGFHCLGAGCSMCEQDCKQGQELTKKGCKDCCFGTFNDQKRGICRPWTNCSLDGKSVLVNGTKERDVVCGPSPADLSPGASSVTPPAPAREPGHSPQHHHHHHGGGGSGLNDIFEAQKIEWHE
Consider B1, for which the fold change of affinity is 0 fold.
Then B2, with 0 fold.
Take B3: the fold change of affinity was 0 fold.
In the case of B4 it was 0 fold; in that of B5, 0 fold; in that of B6, 0 fold.
Then B7, with 0 fold; and B8, with 0 fold.
In the case of B9 it was 0 fold; in that of B10, 0 fold.
As for B11, the fold change of affinity was found to be 0 fold.
Then B12, with 0 fold.
In the case of B13 it was 0 fold.
With B14, the fold change of affinity came out at 0 fold.
